In patent US20240181007A1, “COMPOSITIONS AND METHODS FOR TREATING PULMONARY HYPERTENSION” (Acceleron Pharma Inc., priority 2021, published 2024):

Legend:
Activin A [1] = molecular target: T1, Activin A (Homo sapiens, UniProt P08476); experiment: Biacore-based binding assay (surface plasmon resonance), activin A; settings: for activin A binding compared to ActRIIB-G1Fc (in words): SPR 37° C., FIGS. 8A and 8B
T1 sequence (P08476 311-426): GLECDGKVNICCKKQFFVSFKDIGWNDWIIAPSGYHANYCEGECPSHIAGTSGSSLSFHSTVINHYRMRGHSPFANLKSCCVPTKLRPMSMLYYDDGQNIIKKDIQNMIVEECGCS
Procedure: (§1) To determine ligand binding profiles of variant ActRIIB-Fc homodimers, a Biacore™-based binding assay was used to compare ligand binding kinetics of certain variant ActRIIB-Fc polypeptides. ActRIIB-Fc polypeptides to be tested were independently captured onto the system using an anti-Fc antibody. Ligands were then injected and allowed to flow over the captured receptor protein. ActRIIB-G1Fc was used as the control polypeptide.
(§2) To determine ligand binding profiles of variant ActRIIB-Fc homodimers, a Biacore™-based binding assay was used to compare ligand binding kinetics of certain variant ActRIIB-Fc polypeptides. ActRIIB-Fc polypeptides to be tested were independently captured onto the system using an anti-Fc antibody. Ligands were then injected and allowed to flow over the captured receptor protein.
(§3) A Biacore™-based binding assay was used to compare the ligand binding kinetics of an ActRIIB-Fc:ActRIIB(L79E)-Fc heterodimer with those of unmodified ActRIIB-Fc homodimer. Fusion proteins were captured onto the system using an anti-Fc antibody. Ligands were then injected and allowed to flow over the captured receptor protein at 37° C. Results are summarized in the table below, in which ligand off-rates (kd) most indicative of effective ligand traps are denoted in bold.

Activin B = molecular target: T2, Activin B (Homo sapiens, UniProt P09529); experiment: Biacore-based binding assay (surface plasmon resonance), activin B; settings: for affinity for activin B compared to unmodified ActRIIB-Fc (in words): SPR 37° C., compared to ActRIIB-G1Fc / ActRIIB-Fc homodimer
T2 sequence (P09529 293-407): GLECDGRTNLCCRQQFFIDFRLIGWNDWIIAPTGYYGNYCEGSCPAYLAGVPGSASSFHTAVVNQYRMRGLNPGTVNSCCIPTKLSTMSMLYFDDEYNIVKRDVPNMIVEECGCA
Procedure: as §1, §3

BMP10 = molecular target: T3, BMP10 (Homo sapiens, UniProt O95393); experiment: Biacore-based binding assay (surface plasmon resonance), BMP10; settings: for BMP10 binding compared to ActRIIB-G1Fc (in words): SPR 37° C., FIGS. 8A and 8B
T3 sequence (O95393 317-424): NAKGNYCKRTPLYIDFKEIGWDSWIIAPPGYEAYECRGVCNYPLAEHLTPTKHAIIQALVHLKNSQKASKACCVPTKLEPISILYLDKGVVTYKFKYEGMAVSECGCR
Procedure: as §1, §3

BMP9 [2] = molecular target: T4, BMP9 (Homo sapiens, UniProt Q9UK05); experiment: Biacore-based binding assay (surface plasmon resonance), BMP9; settings: for binding to BMP9 compared to unmodified ActRIIB-Fc (in words): SPR 37° C., compared to ActRIIB-G1Fc / ActRIIB-Fc homodimer
T4 sequence (Q9UK05 320-429): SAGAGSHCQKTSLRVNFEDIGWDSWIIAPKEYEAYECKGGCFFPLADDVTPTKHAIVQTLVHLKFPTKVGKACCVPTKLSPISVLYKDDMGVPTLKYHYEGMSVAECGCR
Procedure: as §1, §2, §3

activin A [3] = molecular target: T5, activin A (UniProt P08476 311-426); experiment: cell-based or functional assay
T5 construct: Soluble ligand injected in SPR or added in the reporter assay
T5 sequence (looked up): T1 sequence (P08476 311-426)

BMP9 [4] = molecular target: T6, BMP9 (UniProt Q9UK05 320-429); experiment: cell-based or functional assay
T6 sequence (looked up): T4 sequence (Q9UK05 320-429)

GDF11 [5] = molecular target: T7, GDF11 (UniProt O95390 299-407); experiment: cell-based or functional assay
T7 construct: also called Growth and differentiation factor-11; BMP11
T7 sequence (looked up): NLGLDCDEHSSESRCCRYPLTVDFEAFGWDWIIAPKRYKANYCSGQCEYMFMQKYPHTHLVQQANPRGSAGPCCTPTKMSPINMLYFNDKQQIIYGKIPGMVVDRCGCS

GDF3 = molecular target: T8, GDF3 (Homo sapiens, UniProt Q9NR23); experiment: Biacore-based binding assay (surface plasmon resonance), GDF3; settings: 37° C., capture by anti-Fc antibody
T8 sequence (Q9NR23 251-364): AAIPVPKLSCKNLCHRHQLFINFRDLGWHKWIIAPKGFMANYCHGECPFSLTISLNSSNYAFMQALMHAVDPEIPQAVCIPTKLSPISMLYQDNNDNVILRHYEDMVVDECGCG
Procedure: as §3

GDF11 [6] = molecular target: T9, GDF11 (Homo sapiens, UniProt O95390); experiment: Biacore-based binding assay (surface plasmon resonance), GDF11
T9 sequence (O95390 299-407): T7 sequence (looked up)
Procedure: as §1, §2, §3

GDF8 = molecular target: T10, GDF8 (Homo sapiens, UniProt O14793); experiment: Biacore-based binding assay (surface plasmon resonance), GDF8
T10 sequence (O14793 267-375): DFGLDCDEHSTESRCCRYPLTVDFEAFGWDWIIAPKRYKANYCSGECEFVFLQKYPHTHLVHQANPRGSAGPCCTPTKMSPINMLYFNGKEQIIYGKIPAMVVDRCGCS
Procedure: as §1, §3

BMP6 = molecular target: T11, BMP6 (Homo sapiens, UniProt P22004); experiment: Biacore-based binding assay (surface plasmon resonance), BMP6; settings: 37° C., capture by anti-Fc antibody
T11 sequence (P22004 375-513): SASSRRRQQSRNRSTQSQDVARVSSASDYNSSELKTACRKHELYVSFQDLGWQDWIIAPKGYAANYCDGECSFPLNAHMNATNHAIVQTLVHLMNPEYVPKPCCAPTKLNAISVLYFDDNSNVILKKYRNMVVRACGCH
Procedure: as §3

[7] = 37° C., capture by anti-Fc antibody
[8] = 37° C., capture by anti-Fc antibody, Transient*: indeterminate due to transient nature of interaction
[9] = SPR 37° C., compared to ActRIIB-G1Fc / ActRIIB-Fc homodimer

Substance: L79H-F82I: homodimeric ActRIIB-G1Fc fusion with L79H and F82I substitutions; mature SEQ ID NO: 341
- activin A binding compared to ActRIIB-G1Fc (in words) (Activin A [1]): significant decrease
- affinity for activin B compared to unmodified ActRIIB-Fc (in words) (Activin B): relatively high affinity for activin B
- BMP10 binding compared to ActRIIB-G1Fc (in words) (BMP10): decrease in BMP10 binding
- binding to BMP9 compared to unmodified ActRIIB-Fc (in words) (BMP9 [2]): decrease in binding to BMP9

Substance: E52A (homodimeric ActRIIB-Fc construct) (Fc fusion)
- IC50 (ng/ml), A204 CAGA12 luciferase reporter assay (activin A [3]): 198 ng/mL
- IC50 (ng/ml), A204 CAGA12 luciferase reporter assay (BMP9 [4]): 359 ng/mL
- IC50 (ng/ml), A204 CAGA12 luciferase reporter assay (GDF11 [5]): 71 ng/mL

Substance: K55R (homodimeric ActRIIB-Fc construct) (Fc fusion)
- IC50 (ng/ml), A204 CAGA12 luciferase reporter assay (activin A [3]): 206 ng/mL
- IC50 (ng/ml), A204 CAGA12 luciferase reporter assay (BMP9 [4]): 777 ng/mL
- IC50 (ng/ml), A204 CAGA12 luciferase reporter assay (GDF11 [5]): 318 ng/mL

Substance: L79H: homodimeric ActRIIB-G1Fc fusion with L79H substitution; mature SEQ ID NO: 344
- activin A binding compared to ActRIIB-G1Fc (in words) (Activin A [1]): significant decrease
- affinity for activin B compared to unmodified ActRIIB-Fc (in words) (Activin B): relatively high affinity for activin B
- BMP10 binding compared to ActRIIB-G1Fc (in words) (BMP10): decrease in BMP10 binding
- binding to BMP9 compared to unmodified ActRIIB-Fc (in words) (BMP9 [2]): decrease in binding to BMP9

Substance: ActRIIB-Fc homodimer: unmodified ActRIIB-Fc homodimer, comparator of the heterodimer in Table 6
- ka Activin A (Activin A [1]; [7]): 7.4e+06 M⁻¹ s⁻¹
- kd Activin A (Activin A [1]; [7]): 0.00019 s⁻¹
- ka Activin B (Activin B; [7]): 8.1e+06 M⁻¹ s⁻¹
- kd Activin B (Activin B; [7]): 6.6e-05 s⁻¹
- ka BMP10 (BMP10; [7]): 5.1e+07 M⁻¹ s⁻¹
- kd BMP10 (BMP10; [7]): 0.0002 s⁻¹
- ka GDF3 (GDF3): 1.4e+06 M⁻¹ s⁻¹
- kd GDF3 (GDF3): 0.0022 s⁻¹
- ka GDF11 (GDF11 [6]; [7]): 4.1e+07 M⁻¹ s⁻¹
- kd GDF11 (GDF11 [6]; [7]): 0.00017 s⁻¹
- ka GDF8 (GDF8; [7]): 3.8e+06 M⁻¹ s⁻¹
- kd GDF8 (GDF8; [7]): 0.00026 s⁻¹
- ka BMP9 (BMP9 [2]; [8]): 5e+06 M⁻¹ s⁻¹
- kd BMP9 (BMP9 [2]; [8]): 0.0013 s⁻¹
- ka BMP6 (BMP6): 1.3e+08 M⁻¹ s⁻¹
- kd BMP6 (BMP6): 0.0074 s⁻¹

Substance: E52K (homodimeric ActRIIB-Fc construct) (Fc fusion)
- IC50 (ng/ml), A204 CAGA12 luciferase reporter assay (activin A [3]): 762 ng/mL
- IC50 (ng/ml), A204 CAGA12 luciferase reporter assay (BMP9 [4]): 10000 ng/mL
- IC50 (ng/ml), A204 CAGA12 luciferase reporter assay (GDF11 [5]): 296 ng/mL

Substance: E50P (homodimeric ActRIIB-Fc construct) (Fc fusion)
- IC50 (ng/ml), A204 CAGA12 luciferase reporter assay (activin A [3]): 756 ng/mL
- IC50 (ng/ml), A204 CAGA12 luciferase reporter assay (BMP9 [4]): 3000 ng/mL
- IC50 (ng/ml), A204 CAGA12 luciferase reporter assay (GDF11 [5]): 638 ng/mL

Substance: L79H-F82K: homodimeric ActRIIB-G1Fc fusion with L79H and F82K substitutions; mature SEQ ID NO: 347
- activin A binding compared to ActRIIB-G1Fc (in words) (Activin A [1]): significant decrease
- affinity for activin B compared to unmodified ActRIIB-Fc (in words) (Activin B): relatively high affinity for activin B
- BMP10 binding compared to ActRIIB-G1Fc (in words) (BMP10): decrease in BMP10 binding
- GDF11 binding compared to unmodified ActRIIB-Fc (in words) (GDF11 [6]; [9]): significant decrease in GDF8 and GDF11 binding
- GDF8 binding compared to unmodified ActRIIB-Fc (in words) (GDF8; [9]): significant decrease in GDF8 and GDF11 binding
- binding to BMP9 compared to unmodified ActRIIB-Fc (in words) (BMP9 [2]): decrease in binding to BMP9

Substance: A24N (homodimeric ActRIIB-Fc construct) (Fc fusion)
- IC50 (ng/ml), A204 CAGA12 luciferase reporter assay (activin A [3]): 128 ng/mL
- IC50 (ng/ml), A204 CAGA12 luciferase reporter assay (BMP9 [4]): 409 ng/mL
- IC50 (ng/ml), A204 CAGA12 luciferase reporter assay (GDF11 [5]): 99 ng/mL

Substance: K55D (homodimeric ActRIIB-Fc construct) (Fc fusion)
- IC50 (ng/ml), A204 CAGA12 luciferase reporter assay (activin A [3]): 396 ng/mL
- IC50 (ng/ml), A204 CAGA12 luciferase reporter assay (BMP9 [4]): 5500 ng/mL
- IC50 (ng/ml), A204 CAGA12 luciferase reporter assay (GDF11 [5]): 365 ng/mL

Substance: E50K (homodimeric ActRIIB-Fc construct) (Fc fusion)
- IC50 (ng/ml), A204 CAGA12 luciferase reporter assay (activin A [3]): 132 ng/mL
- IC50 (ng/ml), A204 CAGA12 luciferase reporter assay (BMP9 [4]): 721 ng/mL
- IC50 (ng/ml), A204 CAGA12 luciferase reporter assay (GDF11 [5]): 180 ng/mL
